The values below are quoted from earlier work in publication PMC4155411.

In this data set the target is HPr (Escherichia coli) (UniProt P0AA04). The data set can be described thus: PRE NMR titration.

Turning to “Enzyme I N-terminal domain (EIN) N-terminal domain (from UniProt P08839)”, the Kd is 7 µM.
